Patent publication US7119077B1, “Multimeric forms of members of the steroid/thyroid superfamily of receptors with the ultraspiracle receptor” (The Salk Institute for Biological Studies, priority 1990, dated 2006)

T1: usp/PPAR heterodimer (Drosophila melanogaster / Rattus …, UniProt P20153;P37230 P20153:1-508,P37230:1-468)
T1 sequence 1: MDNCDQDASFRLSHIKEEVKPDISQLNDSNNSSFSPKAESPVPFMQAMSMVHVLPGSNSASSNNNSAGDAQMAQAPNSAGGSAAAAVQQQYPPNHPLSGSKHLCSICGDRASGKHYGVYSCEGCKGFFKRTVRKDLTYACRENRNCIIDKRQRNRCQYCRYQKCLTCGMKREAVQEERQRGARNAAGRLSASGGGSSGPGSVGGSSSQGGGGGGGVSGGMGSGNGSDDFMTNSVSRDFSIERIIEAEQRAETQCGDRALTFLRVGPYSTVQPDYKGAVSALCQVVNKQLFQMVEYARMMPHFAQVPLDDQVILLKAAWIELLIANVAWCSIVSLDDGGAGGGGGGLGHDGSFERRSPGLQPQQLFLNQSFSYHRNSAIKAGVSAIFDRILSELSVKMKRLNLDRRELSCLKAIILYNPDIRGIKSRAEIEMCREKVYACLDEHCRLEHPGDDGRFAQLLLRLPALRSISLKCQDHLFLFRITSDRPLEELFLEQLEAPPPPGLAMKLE
T1 sequence 2: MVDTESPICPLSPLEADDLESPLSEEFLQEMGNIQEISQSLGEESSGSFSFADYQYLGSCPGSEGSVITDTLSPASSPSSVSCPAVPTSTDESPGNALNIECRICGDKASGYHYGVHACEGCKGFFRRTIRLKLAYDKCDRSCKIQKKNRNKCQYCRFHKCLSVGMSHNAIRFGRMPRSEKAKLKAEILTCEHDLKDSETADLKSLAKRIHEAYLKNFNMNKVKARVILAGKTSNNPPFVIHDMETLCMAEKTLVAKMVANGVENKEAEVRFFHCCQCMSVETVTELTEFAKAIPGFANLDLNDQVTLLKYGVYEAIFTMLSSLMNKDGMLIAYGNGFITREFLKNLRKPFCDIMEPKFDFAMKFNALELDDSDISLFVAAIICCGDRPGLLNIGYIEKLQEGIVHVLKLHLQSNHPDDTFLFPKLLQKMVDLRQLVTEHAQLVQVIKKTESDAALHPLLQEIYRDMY

T2: usp/VDR heterodimer (Drosophila melanogaster / Homo sapiens, UniProt P20153;P11473 P20153:1-508,P11473:1-427)
T2 sequence 1: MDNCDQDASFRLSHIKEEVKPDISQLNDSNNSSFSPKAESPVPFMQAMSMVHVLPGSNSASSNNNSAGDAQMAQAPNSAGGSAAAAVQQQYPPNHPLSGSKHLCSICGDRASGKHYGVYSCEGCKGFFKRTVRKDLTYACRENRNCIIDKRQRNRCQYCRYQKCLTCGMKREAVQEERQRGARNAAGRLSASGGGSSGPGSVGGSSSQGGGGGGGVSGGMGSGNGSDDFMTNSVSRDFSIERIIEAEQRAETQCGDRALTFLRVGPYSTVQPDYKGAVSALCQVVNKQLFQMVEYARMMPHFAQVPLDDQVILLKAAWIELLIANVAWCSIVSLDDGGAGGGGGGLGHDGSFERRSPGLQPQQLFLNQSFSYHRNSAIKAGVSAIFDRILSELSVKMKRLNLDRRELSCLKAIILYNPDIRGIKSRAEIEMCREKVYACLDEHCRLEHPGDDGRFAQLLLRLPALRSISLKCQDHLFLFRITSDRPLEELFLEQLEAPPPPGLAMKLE
T2 sequence 2: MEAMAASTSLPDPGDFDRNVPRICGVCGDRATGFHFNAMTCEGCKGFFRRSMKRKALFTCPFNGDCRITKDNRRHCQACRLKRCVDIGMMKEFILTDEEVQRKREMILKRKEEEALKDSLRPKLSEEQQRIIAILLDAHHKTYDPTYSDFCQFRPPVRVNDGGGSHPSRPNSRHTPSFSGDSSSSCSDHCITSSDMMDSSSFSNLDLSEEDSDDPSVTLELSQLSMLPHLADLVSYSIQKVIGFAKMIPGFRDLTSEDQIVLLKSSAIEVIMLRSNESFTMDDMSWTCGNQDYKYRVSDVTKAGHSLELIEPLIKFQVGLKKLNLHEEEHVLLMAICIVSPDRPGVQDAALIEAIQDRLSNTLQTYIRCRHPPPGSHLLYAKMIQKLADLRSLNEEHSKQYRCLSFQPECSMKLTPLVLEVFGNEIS

B1: AOX-PPARE (DR1) (dsDNA)
DNA 1: AGGACAAAGGTCA
DNA 2: TGACCTTTGTCCT
B2: SPP1-VDRE (DR3, printed SSP1) (dsDNA)
DNA 1: GGTTCACGAGGTTCA
DNA 2: TGAACCTCGTGAACC

Experiments:
usp/PPAR heterodimer = molecular target: T1, usp/PPAR heterodimer; assay: EMSA; high affinity; usp antibody supershift; conditions: label: 32P
Experimental: (§1) For gel mobility shift assay, proteins were incubated with binding buffer, which contained 100 mM KCl, 7.5% glycerol, 20 mM HEPES pH 7.5, 2 mM DTT and 0.1% NP-40, on ice for 20 minutes in the presence of 2 μg of nonspecific competitor poly dI-dC and other oligo competitors. Then approximately 1 ng of ^32P-dCTP probe, which was labelled to specific activity about 1-5×10^8 cpm/μg by fill-in reaction with Klenow fragments, was added to the reaction and incubated at room temperature for 20 minutes. Antiserum or preimmune serum was added 10 minutes after the probe was added. The reaction was then loaded into 5% non-denaturing polyacrylamide gel in 0.5×TBE running buffer [1×TBE comprises 0.089 M Tris borate, 0.089 M boric acid and 0.002 M EDTA]. After electrophoresis, the gel was dried for autoradiography.
(§2) Using in vitro translated usp protein, interaction of usp with three mammalian nuclear receptors (TRβ, VDR and PPAR) was tested in gel mobility shift assays with the appropriate response element for each of the three receptors as the probes.

usp/VDR heterodimer = molecular target: T2, usp/VDR heterodimer; assay: EMSA; usp dependent; usp antibody supershift; conditions: label: 32P
Experimental: as §1, §2

Row | Binder | binding result (usp/PPAR heterodimer) | binding result (usp/VDR heterodimer)
1 | B1 | binds | –
2 | B2 | – | binds
